Results published in publication PMC10989797, “Mechanistic insights into the key marine dimethylsulfoniopropionate synthesis enzyme DsyB/DSYB” (mLife, 2022).
One block for each molecule: values may come before it.

Legend:
[1] = target: T1, N. denitrificans DsyB (Nisaea denitrificans, UniProt A0A979HMS8); assay: X-ray crystal structure of complex; native MS; format: binding
T1 construct: full length, 337 residues (Met1-Glu337), C-terminal His-tag (pET22b), E. coli BL21(DE3); initiator Met mostly cleaved; monomer 37,215 Da predicted; homodimer in solution

[2] = target: T1, N. denitrificans DsyB; assay: X-ray crystal structure of complex; format: binding; conditions: DsyB-SAH-MTHB complex; SAM site in C-domain; 1 mM SAH and 1 mM DL-MTHB
[3] = target: Nisaea denitrificans DsyB (Nisaea denitrificans DR41_21 (DSM 18348)); assay: SEC; gel filtration of DsyB in solution; conalbumin (75,000 Da) and ovalbumin (43,000 Da) as markers
[4] = target: Nisaea denitrificans DsyB (Nisaea denitrificans DR41_21 (DSM 18348)); assay: native MS; nondenaturing MS of as-isolated DsyB exchanged into 250 mM ammonium acetate, pH 8.0; dimer region also seen with 25 equivalents of SAM
[5] = substrate: C[S+](CC[C@H](N)C(=O)O)C[C@H]1O[C@@H](n2cnc3c(N)ncnc32)[C@H](O)[C@@H]1O; assay: cells, lysate or membranes named; conditions: 1 mM DL-MTHB, 0-2 mM SAM, 1.97 µM enzyme activated with heat-killed L. aggregata dsyB- lysate fractions, 50 mM Tris-HCl, 100 mM NaCl, pH 8.0, 28 °C
[6] = substrate: CSCCC(O)C(=O)O; assay: GC of DMS released from product by alkali; nonlinear fit; format: biochemical, Nisaea denitrificans; conditions: 1 mM SAM, 1.97 µM enzyme activated with heat-killed L. aggregata dsyB- lysate fractions, racemic substrate 0-2 mM, 50 mM Tris-HCl, 100 mM NaCl, pH 8.0, 28 °C

Molecule: CSCCC(O)C(=O)O (racemic) [MTHB]
X-ray crystal structure of complex; native MS ([1]; DsyB-SAH-MTHB complex, poor MTHB density, >6 Å from SAH, presumed initial binding site, 1 mM DL-MTHB): the MTHB cosubstrate molecule is located between the C‐domain and the N‐domain

Molecule: Nc1ncnc2c1ncn2[C@@H]1O[C@H](CSCC[C@H](N)C(=O)O)[C@@H](O)[C@H]1O [SAH]
X-ray crystal structure of complex [2]: we solved the crystal structures of complexes of DsyB with SAM and with SAH‐MTHB

Molecule: C[S+](CC[C@H](N)C(=O)O)C[C@H]1O[C@@H](n2cnc3c(N)ncnc32)[C@H](O)[C@@H]1O (stereo partly shown) [SAM]
X-ray crystal structure of complex; native MS ([1]; DsyB-SAM complex, SAM bound in chains A-C, not D, 1 mM SAM): three monomers (Chain A, B, and C) of the asymmetric unit contained SAM molecules

stoichiometry N [3]: 2
stoichiometry N [4]: 2
Molecule: Nisaea denitrificans DsyB (enzyme)

B1: N. denitrificans DsyB (Nisaea denitrificans DSM 18348) (protein)
chain: MTLLTNAEEISDIAFGFMGSKALFAALHHGVFTCLADGPLSVEEMAAATGLHPDRVQTLLTALASLGVVSAVEGRFANSPAAESFLVKGAKYDFGDYLRLQVDRQMYGLLDQIEDAIANNLPDDATSSYADWFSDPEQAKLYSNSQHAGSLGPARGLAKLIDLSGGKKLLDVGGGTGAFAITLCKAFADLAATIVDFPNVAALGKGYVEKAGLSDRIEYVIGDALRTEWPREQDAILMSYLFSGVAGDEHDSLLKRAYDHLVPGGRLLIHDFVVTADRTGPKLAALWQLQHTAFTPEARSLDDEWLAEQLKKTGFTDVKVGPMIPGMTMLAEAVRPE
notes: full length, 337 residues (Met1-Glu337), C-terminal His-tag (pET22b), E. coli BL21(DE3); initiator Met mostly cleaved; monomer 37,215 Da predicted; homodimer in solution
Km [5]: 160 ± 2 µM
Km [6]: 140 ± 20 µM
